Reference: article PMC2818599

Target: HLA-DR DRB1 *1101 (human)
Experiment: radioligand binding

IC50: 30 nM
Substance: HER-2/neu.59 (peptide)
